{"source": "the nanobody polyreactivity screen of Harvey et al. (2022)"}
{"test": "yeast display, Sf9 membrane polyspecificity reagent, FACS + sequencing; frameworks hold sequencing errors", "outline": "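After 36–48 hours of galactose induction, yeast (Saccharomyces cerevisiae BJ5465) displaying a synthetic nanobody library were stained at 4 °C for 1 hour with 10% biotinylated, detergent-solubilized Sf9 membrane reagent. Streptavidin microbeads enriched the stained cells before FACS sorting into low and high (top ~1%) gates on anti-HA and streptavidin fluorescence. Each clone's polyreactivity label reflects its gate of origin.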"}
{"sequence": "QVQVVESGGGLVQAGGRLRLSFAASGFTFESYAMGWYRQAPGKERELVPAISDGGGDTYYADSVKGRFTISRDNAKNTVYLQMNSLKPEDTAVYYCAAEWDGNWSRCAGGYDYWGQGTQVTVSS", "polyreactivity (PSR sort gate)": "low polyreactivity"}
{"sequence": "QVQLVESGGGLVQAGGSLRLSCAASGSIFPGFAMGWYRQAPGKERELVAAISTSGGNTYYADSVKGRFTISRDNAKNTVYLQMNSLKPEDTAVYYCAVRHRLYTAGYDYWGQGTQVTVSS", "polyreactivity (PSR sort gate)": "low polyreactivity"}
{"sequence": "QVQLVESGGGLVQAGGSLRLSCAASGFIFADYAMGWYRQAPGKARELVAAINRGASTYYADSVKGRFSISRDNAKNTVYFQMNSLKPEDTAVYYCAAAGYSRGGRGGYWGHGTQVTVSS", "polyreactivity (PSR sort gate)": "high polyreactivity"}
{"sequence": "QVHLVESGGGLVQAGGSLRLSCAASGITFRRNTMGWYRQAPGKERELVATISWRGGNTFYADSVKRRFTISRDNAKNTVYLQMHSLKPEDTAVYYCAVAFKGPSGYQYDYWGQGTQVTVSS", "polyreactivity (PSR sort gate)": "high polyreactivity"}
{"sequence": "QVQLVESGGGLVQAGGSLRLSCAASGFIFGWYAMGWYRQAPGKERELVAAISRSGGSTYYADSVKGRFTISRDNAMNTVYLQMNCLKPEDTAVYYCAAQRSYAYEYWGQGTQVTVSS", "polyreactivity (PSR sort gate)": "high polyreactivity"}
{"sequence": "KVQLVESGGGLVQAGGSLRLSCAASGSTFYQYAMGWYRQAPGKERELVAVITGSGGSTYYADSVKGRFTISRDNAKNTVYLQMNSLKPEDTAVYYCAAGARYFKYRTTSLGGNYWGQGTQVTVSS", "polyreactivity (PSR sort gate)": "high polyreactivity"}
{"sequence": "QVQLVESGGGLVQAGGSLRLSCAASGSIISSYAMGWYRQAPGKEREFVAAISSSGDSTYADSVKGRFTISRDNAKNTVYVQMNSLKPEDTAVFYCAVGGAGSDDYWGQGSQVTVSS", "polyreactivity (PSR sort gate)": "low polyreactivity"}
{"sequence": "QVQLVESGGGLVQAGCSLRLSCAASGRIFYYYAMGWYRQAPGKERELVADITWSGGSTYYADSVKGRFTISRDNAKNTVYLQMNSLKPEDTAVYYCNAVYFNYLLEYDYWGQGTQVTVSS", "polyreactivity (PSR sort gate)": "high polyreactivity"}
{"sequence": "QVQLVESGGGLVQAGGSLRLSCAASGRSFDWDVLGWYSQVPGKERELVAAIDDSGGSTYYADSVKGRFTISRDNAKNTVYLQMNSLKPEDTAVYYCAAASYEYALDEHMDYWGQGTQVTGSS", "polyreactivity (PSR sort gate)": "low polyreactivity"}
{"sequence": "QVQLVESGGGLVQAGGSLRLSCAASGFTFDANAMGWYRQAPGKERELVAAISWSGGSTYYADSVKGRFTISRDNAKNTVYLQMNSLKPEDTAVYYCAARRYSYVGGQGSDYWGQGTKVTVSS", "polyreactivity (PSR sort gate)": "high polyreactivity"}
{"sequence": "QVQLVESGGGLVQAGGSLRLSCAASGRTFYVYNMGCYRQAPGKERELVAGISYSGGSTYYADSVKGRFTISRDNAKNTVYLQMNSLKPEDTAVYYSNAELYFPYFDGKTRLGGYWGLGTQVTVSS", "polyreactivity (PSR sort gate)": "low polyreactivity"}
{"sequence": "QVQLVESGGGLVQAGGSLRLSCAASGRSFSYNAMGWYRQAPGKERELVAAISYGGGRTYYADSVKGRFTISRDNAKNTVYLQMNSLKPEDTAVYYCNRYGRQYDFYYWGQGTQVSVSS", "polyreactivity (PSR sort gate)": "high polyreactivity"}
{"sequence": "QVQLVESGGGLVQAGGSLRLSCAASGFIFTRYAMGWYRPAPGKERELVAAISASGGSTYYADSVKGRFTISRDNAKNTVYLQMNSLKPEDTAVYYCAAGGSWFRYPPRMDYWGQGTQVTVSS", "polyreactivity (PSR sort gate)": "high polyreactivity"}
{"sequence": "QVQLVESGGGLVQAGGSLRLSCAASGSTFYFNAMGWYRQAPGKERELVATISDNDGSTNYADSVKGRFTISRDNAKNTVYLLMISLKPEDTGVYYCNADWYYYYEEDDYWGQGTQVTVSS", "polyreactivity (PSR sort gate)": "low polyreactivity"}
{"sequence": "QVQLVESGGGLVQAGGSLRLSCAASGYILTHYAMGWYRQAPGKERELVAAITSSGGSTYYADSVKGRFTISRDNAKNTVYLQMNSLKPEDTAVYYCAADAGQQEYDYWGQGTQVTVSS", "polyreactivity (PSR sort gate)": "low polyreactivity"}
{"sequence": "QVQLVESGGGLVQAGGSLRLSCAASGRIYDRYDMVWYRQAPVKERELVAAISSGGSTYYADSVKGRFTISRDNAKNTVYLQMNSLKPEDTAVNNCAADRRSKYDYWGQGTQVTVSA", "polyreactivity (PSR sort gate)": "low polyreactivity"}
{"sequence": "QVQLVESGGGLVQAGGSLRLSCAASGRTFTTYAMGWYRQAPRKERELVASISRRGGSTYYADSVKGRFTISRDNAKNTVYLQMNSLKPEDTAVYYCNAGGVRKYGYWGQGTQVTVSS", "polyreactivity (PSR sort gate)": "high polyreactivity"}
{"sequence": "QVQLVESGGALVQEGGSHRLSCAASRRIFVVYAMGWYRQAPGKERELVAAISKRRGSTYYADSVKGRFTISRYNAKNTVYLQMKSQKPEDTAVYYCAVEGVIWSFWPYEYWGQGTQVTVSS", "polyreactivity (PSR sort gate)": "high polyreactivity"}
{"sequence": "QVQLVESGGGLVQAGGSLRLSCAASGSTLYQYTMGWYRQAPGKERELVAGISRRGGSTYYADSVKGRFTISRDNAKNTVYLQMNSLKPEDTAVYYCAKRPPYIAWYGYNGDYWGQGTQVTVSS", "polyreactivity (PSR sort gate)": "high polyreactivity"}
{"sequence": "QVQLVDSGGGLVQAGGSLRLSCAASGYSFYFYAMGWYRQAPGKERELVAAITGGGTTSYADSVKGRFTISRDNAKNTVYLQMNSLKPEDTAVYYCNVLFADKSDYWGQGTLVTVSS", "polyreactivity (PSR sort gate)": "low polyreactivity"}
{"sequence": "QVQLVESGGGLVQAGGSLRLSCAASGIIFAYYAMGWYRQAPGKVRELVASITNTGSTYYADSVKGRFTISRDNAKNTVYLQMNSLKPEDTAVYYCNAVLSSNTKWRYPGDYWGQGTQVTVSS", "polyreactivity (PSR sort gate)": "low polyreactivity"}
{"sequence": "QVQLVESGGGLVQAGASLRLSCAASVIIFKIYAMGWYRQAPGKERELVAAITRSGTRTYYADSVKGRFTISRDNAKNTVYLQMNSLKPEDTAVYYCNAYTTLAYDLDYWGQGTQVTVSS", "polyreactivity (PSR sort gate)": "high polyreactivity"}
{"sequence": "QVQLVESGGGLVQAGGSLRLSCAASGRIFTRYAMGWYRQAPGKARELVAAITSSGGRTYYADSVKGRFTISRDNAKNTVYLQMNSLKQEDTAVYYCATGYINSYYYWGQGTQVTVSS", "polyreactivity (PSR sort gate)": "high polyreactivity"}
{"sequence": "QVQLVESGGGLVQAGGSLRLSCAASGSTFGYYAMGWYRPAPGKERELVAAISSSAGTTYYADSVKGCFTISRDNAKNTVYLLMNRLKPEDTAVFYCAADAVSGHEYWGQGTQVTVSS", "polyreactivity (PSR sort gate)": "low polyreactivity"}
{"sequence": "QVQLVESGGGLVQAGGSLRLSCAASGSTFRWNTMGWDRQAPGKEREMVAAISYSGGITYYADSVKGRFTISRDNAKNTVYLQMNSLKPEDTAVYYCNLVAYRSYLSSYDYWGQGTQVTVSS", "polyreactivity (PSR sort gate)": "high polyreactivity"}
{"sequence": "QDQLVESGGGLVQAGGSLRLSCAASGLIFYGNAMGWYRQAPGQERELVADISGSSVRTYYADSVKGRFTISRDNAKNTVCLQMNSLKPEDTAVYYCAATYGYLYTGLSRYDYWGQGTQVTVSS", "polyreactivity (PSR sort gate)": "low polyreactivity"}
{"sequence": "QVQLVESGGGLVQAGGSLRLSCAASGRTLYWYAMGWYRQAPGKEREFVAAITWRGGSTSYADSVKGRFTISRDNAKNTVYLQMNSLKPEDTAVYYCAASSFRSYYSGKYDYWGQGTQVTVSS", "polyreactivity (PSR sort gate)": "high polyreactivity"}
{"sequence": "QVQLVESVGGLVQAGGSLRLSCAASGFTFDENAMGWYSQAPGINYSGASTYYADSVKGRFTLSRDNAKNTVYLQMNSLKQEDTAVNYCAAEVVAQLNYWGPGTQVTVSS", "polyreactivity (PSR sort gate)": "low polyreactivity"}
{"sequence": "QVQLVESGGGLVQAGGSLRLSCAASGSIFPFYAMGWYRKAPGKERELVAAISDRGGSTYYADSVKGRFTISRDNAKNTVYLQMNSLKPDDTAVYYCAKGAEVSQGYTDEYDYWGQGTQVTVSS", "polyreactivity (PSR sort gate)": "low polyreactivity"}
{"sequence": "QVQLVESGGGLVQAGGSLRLSCAASGFIFAYNAMGWYRQAPGKERELVAAISWSGGSTYYADYVKGRFTISRDNAKNTVYLQMNSLKPEDTAVYYCNAVSYYGARYDYWGQGTQVTVSS", "polyreactivity (PSR sort gate)": "high polyreactivity"}
{"sequence": "QVQLVETGGGLVQAGGSLRLSCAASGLIFSYKAMGWYRQAPGKERELVGAISRGGSTYYADSVKGRFTISRDNAKNTVYLQMNSLKRVDTAVYYCAADFYGWVDYWGQGTQVTVSS", "polyreactivity (PSR sort gate)": "high polyreactivity"}
{"sequence": "QVQLVESGGGLVQAGGSLRLSCAASGRTFYTNAMGWSRQAPGKERELVAAISRGGGRTYYADSVKGRFTISRDNAKNTVYLQMNSLKPEDTAVYYCAASPYQGQGREYYYWGQGTQVTVSS", "polyreactivity (PSR sort gate)": "high polyreactivity"}
{"sequence": "QVQLVESGVGLVQAGGSLRLICAASGSIFYPYTMGWYRQAPGKERELVAAITINGGSTYYADSVKGRFTISRDNAKNTVYLQMNSLKPEDTAVYYCAAYYASPRHGYWGQGTQVTVSS", "polyreactivity (PSR sort gate)": "low polyreactivity"}
{"sequence": "QVQLVESGGGLVQAGGILRLSCAPSGLILKYYAMGWYRQAPGKEREFVAAITRRGGITYYADSVKGRFTISRDNAKNTVYLQMNSLKPEDTAVYYCAADPKLGSLAYWRYSYPLYDYWGQGTQVTVSS", "polyreactivity (PSR sort gate)": "low polyreactivity"}
{"sequence": "QVQLVESGGGLVQAGGSLRLSCDASGITFQYYAMGWYRQAPGKERELVAAINWRGGTTYYADSVKGRITISRDNAKNTVYLQMNSLIPEDNEVYYCAADYYYQAGFYYWGQGTQVTVSS", "polyreactivity (PSR sort gate)": "low polyreactivity"}
{"sequence": "QVQLVESGGGLGQAGGSLRLRCAASGSTFQYYAMGWYRQAPGKERELVAAITHSGTRTYYADSVKGRFTISRDNAKNTVYLQMNSLKPVDTAVYYCAARGYGKYDYWGQGTQVTVSS", "polyreactivity (PSR sort gate)": "high polyreactivity"}
{"sequence": "QVQLVESGGGLVQAGGSLRLICAASGSTFPPNAMGWYRQAPGKERELVAAISKRGGSTTYSDSVKGRFTISRDYAKNTVYLQMNSLIPEDTAVYYCAARRSGRSHYEKMDYWGQGTQVSVSS", "polyreactivity (PSR sort gate)": "low polyreactivity"}
{"sequence": "QVQLVESGGGLVQAGGSLRLSCAASGSIFFVYAMGWYTQAPGKERELVAGIRWSGGRTSYADSVKGRFTISRDNAKNTVYLQMNSLNQEDTAVYYCAAGCGVLPQQHYYYRYDYWGQGTQVTVSS", "polyreactivity (PSR sort gate)": "high polyreactivity"}
{"sequence": "QVQLVESGGGLVQAGGSLRLSCAASGIIFYLYTIGWYRQAPGKEREFVADISSGTTTYYADSVKGRFTISRDNAKNTVYLQMNSLKPEDTAVYYCNAQYNYYTWKLAYTFDYWGQGTQVTVSS", "polyreactivity (PSR sort gate)": "high polyreactivity"}
{"sequence": "QVQLVESGGGLVQAGGSLRLSCAASGRIFPLYAMGWSRQAPGKERELVAAITSSGGSTYYADSVKGRFTISRDNAKNTVYLQMNSLKPEDTAVYYCAADYSVYWLDYGYWGQGTLVTVSS", "polyreactivity (PSR sort gate)": "low polyreactivity"}
{"sequence": "QVQLVESGGGLVQAGGSLRLSCAASGLIFGTNAMGWYRQAPGKERELVAYITSGGSTYADSVKGRFTISRDNAKNTVYLQMNSLKPEDTAVYYCAAYVFWAFYEYDYWGQGTQVTVSS", "polyreactivity (PSR sort gate)": "low polyreactivity"}
{"sequence": "QVQLVESRGGLVQAGGSLRLSCAASGRTFHRNAMGWYRQPPGKERELVAAITGDGRTNYADSVKGRFTISRDNAKNTVYLQMNSLKPVDTAVYYCAARFSYRSYDYWGQGTQVTVSS", "polyreactivity (PSR sort gate)": "low polyreactivity"}
{"sequence": "QVQLVESGGGLVQAGGSLRLSCAASGRILWFYAMGWYRQAPGKERELVAAITDSGGSTYYADSVKGRFTISRDNAKNTVYLQMNSLKPEDTAVYYCAADTYYEFQYYVILEYNYWGQGTQVTVSS", "polyreactivity (PSR sort gate)": "low polyreactivity"}
